The values that follow come from patent publication US7220539.

Data set [1] deals with Akt (over-expressed or present in transfected cells; isoform and tag not stated). Nature of the data set: cell-based or functional assay.
Data set [2] relates to TRB-3 (wild-type, recombinant; tag and species not stated).
Another data set relates to T1, TRB-2.
T1 sequence: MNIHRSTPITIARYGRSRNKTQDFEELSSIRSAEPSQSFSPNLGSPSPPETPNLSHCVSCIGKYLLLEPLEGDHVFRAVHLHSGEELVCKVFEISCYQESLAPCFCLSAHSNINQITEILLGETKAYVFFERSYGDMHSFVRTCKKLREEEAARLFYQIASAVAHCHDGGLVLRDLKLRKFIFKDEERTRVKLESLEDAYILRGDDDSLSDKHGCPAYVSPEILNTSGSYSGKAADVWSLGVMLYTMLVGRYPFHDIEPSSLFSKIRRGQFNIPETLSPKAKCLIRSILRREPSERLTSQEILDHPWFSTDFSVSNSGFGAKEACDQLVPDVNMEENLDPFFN

The target of data set [3] is GAL4 ΔPH (amino acids 150-480) Akt construct (yeast) (UniProt P04386). Kind of data set: cell-based or functional assay.
Sequence of UniProt P04386 (P04386 1-147, stated change not applied): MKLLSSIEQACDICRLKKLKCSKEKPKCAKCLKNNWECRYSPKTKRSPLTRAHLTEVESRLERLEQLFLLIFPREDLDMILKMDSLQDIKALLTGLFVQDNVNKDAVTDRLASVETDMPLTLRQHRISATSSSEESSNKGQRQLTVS

In data set [1], “TRB-3 (wild-type, recombinant; tag and species not stated)” returned a forkhead (Foxo1) activity on an IGFBP1 reporter in HEK293 cells of 3 fold.

On to HA-tagged Akt1, for which, in data set [2], the “Akt activity, in vitro kinase assays with a consensus Akt peptide substrate” value is reported as “Over-expression of TRB-3 reduced Akt activity”.

Take “Akt (over-expressed or present in transfected cells; isoform and tag not stated)”: the “phosphorylation of Akt” value with TRB-2 is “TRB-2 was similarly effective at blocking Akt phosphorylation”.

Take “TRB-3-VP16 (from UniProt P06492 411-490)”: the GAL4 luciferase reporter activity, mammalian two hybrid assay in HEK293 cells, relative to control VP16 expression vector in data set [3] came to 5 fold.
